Assay: soluble on expression in E. coli; label from the status in PepcDB or PDB records

Sequence	soluble on expression in E. coli
MRFVYLSDLDNNQKNFYKEADRQSALLSMLIEKDIDFIGAGANFYQVGSKKDWSQFPLFADSLLHRSNSLISLQWMEKVEEKDIDEHFQQIHKNYPLAKLYTVPKDQPKTYGYVMKNHEPIYIATDIYPRDEKNTPLIGFYSSRERFNLVVEEFLTTGRPSVSDKIRLLQDSLDQSAQKTGMLVYHPVFTSDKTALKGVMVGVVRITSYFDRLVNSTSLGEELVVRIIDTGFDAGDDPIMYQSSTWNNFKGVDYTTSVKIENRLWKIEYKSDNKLNEYQRLTLEHHHHHH	not soluble
MRGLMLRSFSAGYSTQPVIADLNVPLLPRGKITILLGPNGCGKSTLLRSLAGLNNADGEALLDGEDLMSLSFAERAQKVVFLPQSLPQGVHLHVLESIIVVLRASGGRDNAQGRAQILAILEQLGITHLALQYLDQLSGGQRQLVGLAQSLIRRPELLLLDEPLSALDLNYQFHVMDLVRRDTQAQNRVTIVVAHDINIALRHGDHVLMLKDGRLVASGAPETVITAERLAEVYRVRGRVERCSQGKLQVVLDGVIAV	not soluble
MRGSHHHHHHGLVPRGSMIRTMLQGKLHRVKVTHADLHYEAGSCAIDQDFLDAAGILENEAIDIWNVTNGKRFSTYAIAAERGSRIISVNGAAAHCASVGDIVIIASFVTMPDEEARTWRPNVAYFEGDNEMKRTAKAIPVQVA	soluble
MRGSHHHHHHGSACVSKRRVVVTGLGMLSPVGNTVESTWKALLAGQSGISLIDHFDTSAYATKFAGLVKDFNCEDIISRKEQRKMDAFIQYGIVAGVQAMQDSGLEITEENATRIGAAIGSGIGGLGLIEENHTSLMNGGPRKISPFFVPSTIVNMVAGHLTIMYGLRGPSISIATACTSGVHNIGHAARIIAYGDADVMVAGGAEKASTPLGVGGFGAARALSTRNDNPQAASRPWDKERDGFVLGDGAGMLVLEEYEHAKKRGAKIYAELVGFGMSSDAYHMTSPPENGAGAALAMANALRDAGIEASQIGYVNAHGTSTPAGDKAEAQAVKTIFGEAASRVLVSSTKSMTGHLLGAAGAVESIYSILALRDQAVPPTINLDNPDEGCDLDFVPHEARQVSGMEYTLCNSFGFGGTNGSLIFKKI	soluble
MRGSHHHHHHGSADAYPSKAIRVIVPFAPGGSTDIIARLVTQRMSQELGQPMVVENKGGAGGAIGASEAARAEPDGYTLSIATVSTMAVNPACRPKDLPYDPIKDFQPVTNFANTANVVAVNPKFPAKDFKGFLEELKKNPGKYSYGSSGTCGVLHLMGESFKMATGTDIVHVPYKGSGPAVADAVGGQIELIFDNLPSSMPQIQAGKLRAMAIAWPTRIDAIKDVPTFADAGFPVLNQPVWYGLLAPKGTPMDVVNKLRDAAVVALKDPKVIKALDDQGSAPSGNTPEEFAKEIKEQYDWAQDVVKKQNIKLD	soluble
MRGSHHHHHHGSESETLTAKATITTTTLPSHDETKTESTEFEKNQKRYQDLISTFPHEKGWRPKEPLIEYGGYWWLPSLLEGCIHAQEFFQARPSDFLVCSYPKTGTTWLKALTFAIANRSRFDDSSNPLLKRNPHEFVPYIEIDFPFFPEVDVLKDKGNTLFSTHIPYELLPDSVVKSGCKMVYIWREPKDTFISMWTFLHKERTELGPVSNLEESFDMFCRGLSGYGPYLNHILAYWKAYQENPDRILFLKYETMRADPLPYVKSLAEFMGHGFTAEEEEKGVVEKVVNLCSFETLKNLEANKGEKDREDRPGVYANSAYFRKGKVGDWSNYLTPEMAARIDGLMEEKFKGTGLLEHGKKLN	soluble
MRGSHHHHHHSNFAIILAAGKGTRMKSDLPKVLHKVAGISMLEHVFRSVGAIQPEKTVTVVGHKAELVEEVLAGQTEFVTQSEQLGTGHAVMMTEPILEGLSGHTLVIAGDTPLITGESLKNLIDFHINHKNVATILTAETDNPFGYGRIVRNDNAEVLRIVEQKDATDFEKQIKEINTGTYVFDNERLFEALKNINTNNAQGEYYITDVIGIFRETGEKVGAYTLKDFDESLGVNDRVALATAESVMRRRINHKHMVNGVSFVNPEATYIDIDVEIAPEVQIEANVILKGQTKIGAETVLTNGTYVVDSTIGAGAVITNSMIEESSVADGVTVGPYAHIRPNSSLGAQVHIGNFVEVKGSSIGENTKAGHLTYIGNCEVGSNVNFGAGTITVNYDGKNKYKTVIGDNVFVGSNSTIIAPVELGDNSLVGAGSTITKDVPADAIAIGRGRQINKDEYATRLPHHPKNQ	soluble
MRGSHHHHHHTDPALRAAIIPKNYARLESGYREKALKIYPWVCGRCSREFVYSNLRELTVHHIDHDHTNNPEDGSNWELLCLYCHDHEHSKYTEADQYGTTVIAGEDAQKDVGEAKYNPFADLKAMMNKKKGLCGR	soluble
MRGSHSGAQGLLAAQKARGLFKDFFPETGTKIELPELFDRGTASFPQTIYCGFDPTADSLHVGHLLALLGLFHLQRAGHNVIALVGGATARLGDPSGRTKEREALETERVRANARALRLGLEALAANHQQLFTDGRSWGSFTVLDNSAWYQKQHLVDFLAAVGGHFRMGTLLSRQSVQLRLKSPEGMSLAEFFYQVLQAYDFYYLFQRYGCRVQLGGSDQLGNIMSGYEFINKLTGEDVFGITVPLITSTTGAKLGKSAGNAVWLNRDKTSPFELYQFFVRQPDDSVERYLKLFTFLPLPEIDHIMQLHVKEPERRGPQKRLAAEVTKLVHGREGLDSAKRCTQALYHRSHHHHHH	soluble
MRIDPFKLAHWMNARKYTAAQTADLAGLPLDDLRRLLGDEANEPDPAAATALAEALSVEPSQLAADAHRNLTVVHKSAEEMHASRRPIQRDGIHFYNYYTLAAPEGRVAPVVLDILCPSDRLPALNNGHLEPAITVNLGPGDINGRWGEEITPQTWRVLHANHGGDRWITGDSYVEPSYCPHSYSLAGDAPARIVSYTAQSNISPLMTEANNWSTGAFEEALKALSGKVSAGSVLDLFLARRAHTRTSAAEAAGVPPADLEAALRSPASETGLTVLRTLGRALGFDYRVLLPADDQHDGVGKTWTTIEDSRRSRRTFGTYEAASMASAAHLPDLVGSFLRVDADGRGADLIDHAENHYVVTEGRLTLEWDGPDGPASVELEPDGSAWTGPFVRHRWHGTGTVLKFGSGAHLGYQDWLELTNTFEPAATLRRGRRDLAGWGYDN	soluble
MRIESPQNPRVKALAALKERKERERTGRFLVEGRREVERALEAGLSLETLLLGPKARPEDRALAGGAEVLELSERALARVSTRENPAQVLGVFRLPRRSLAGVTLGAAPLVLVLLGLEKPGNLGAILRAADGAGADLVLVAEGVDLFSPQVIRNSTGAVFALPVYPVAEGEAARFLEEHNLPLVAATPEGERLYWEGDYRGGVAFLLGAEDKGLPEAWKRRAQVRVRIPMRGRADSLNVAVTAALLLYEALRQRSGGAPL	soluble
MRIFEPGLCSVTFRSLSPQAVIDLAVANGIRAIEWGADIHVPAGDLENARDVAERTAKAGLAVSSYGSYIFAPDFTRKDLTAVLETAKALGTGHIRIWPGQRKRPSTDYSPAERRTATEALAEIARQAQDYDMTIGLEYHPNSLTDTLPSALQLAQDLALPNLFFYWQPAPGLPLEKALAEISKIGSRVCHLHIFAWLADTNRLPLADRVDYWQSCVEALPESEWTKPAYAMLEFVKGDDVGQFAEDAVTLSEILAGHRVADLEHHHHHH	soluble
MRIHSAGHSLPAPGPSVETTEKAVQSSSAQNPASCSSQTERPEAGSTQVRPNYPYSSVKTRLPPVSSTGQAISDTPSSLPGYLLLRRLDRRPLDEDSIKALVPADEALREARRALPFGRGNIDVDAQRTHLQSGARAVAAKRLRKDAERAGHEPMPENDEMNWHVLVAMSGQVFGAGNCGEHARIASFAYGALAQESGRSPREKIHLAEQPGKDHVWAETDNSSAGSSPIVMDPWSNGAAILAEDSRFAKDRSAVERTYSFTLAMAAEAGKVARETAENVLTHTTSRLQKRLADQLPNVSPLEGGRYQPEKSVLDEAFARRVSDKLNSDDPRRALQMEIEAVGVAMSLGAEGVKTVARQAPKVVRQARSVASSKGMPPRR	not soluble
MRIILLGAPGAGKGTQAQFIMEKYGIPQISTGDMLRAAVKAGSELGLKAKEIMDAGKLVTDELVIALVKERITQEDCRDGFLLDGFPRTIPQADAMKEAGIKVDYVLEFDVPDELIVERIVGRRVHAASGRVYHVKFNPPKVEDKDDVTGEELTIRKDDQEATVRKRLIEYHQQTAPLVSYYHKEADAGNTQYFKLDGTRNVAEVSAELATILG	not soluble
MRILAIGDIIGRPGRKALRELLPQLKEEVAYDVVIANVENSAGGFGITKKVYEELLEIGIDVMTSGNHIWDKKEVYNFIGEAYNLLRPANYPEGVPGRGYGIFKKNGVEFAVINLMGKVFMDCNLENPFKTFDRIYDELKDKVKIIVVDFHAEATSEKWAFGIYVDGRASFVYGTHTHVPTADEFILKKGTGYVSDIGMTGVWYSAIGMKPKEAIERFLLSLPRRFEVEDKGEIMFNAVLVDIDEETGKTKSIERIKRFL	soluble
MRILEEDLKNSTYRIRIESLDDLWYLRNILSEGDEVSAITFRRVEESADVQRSRERERIPITIRLKVEKIEFQDFDNRLRILGTVIEGPEDTKGKHQSITVTVDSEISITKEWDDQHIDLLKEATDEKYVTVYTAVAMDEDEAQIFLIHPYGIQQVGTVYSGRSGKYAEGNYSEASYFDQIVNALKNYSNSIIILGPGFARDRFARYCAQRGVNVIGSFPANRTDSGAVYEFITSADGAKLLSNERIARDKEIVDEFLVAVKKDMGVYGRDQTESALQMGALSDLIITDEMFRTEDGRRSLSIAQTVGTRIHIVSVSNDPGQIVKKFGGFAGILRYRVQLEHHHHHH	soluble
MRIRSLEIEHMRAITHLVLKDLPSNGVIVISGENERGKSTIMEAIKLVLGEKHDTNKQSVKAIQPKGHDVGTRICLEADLGPVRFRVSKVFNKKKSCELTIFEPKPANYTGKEANSQLSGLLDAHLDHDLFSALFVEQGDITSMLSAAGISSVTQALGGATDHASNEDNALILTVEKEKDRYFTKSGATKKGGELGIAETAVAEAEQAVLAATQQKETLDRRVESVAGFQRDRDQAQQDLPNARDTLTTREQELKTAELAAQQLENASAQLKIAQDQERILQSDIDAREELRKEQSRLSEALQIRIQEELDLKEKTDSLSEAREKLRSQHEKARADAEKMRQRLEKLKESLRLDTLRTSYQELLTVSKQLEELRTVPEVTGAQLSAAEEANDRAKAAAYVVEAHAATMLINAAQPVTIQIDGEAVALNDTEWTTRITSELTAVIGDVSLTIEPGEQGEQLEQKRAETQETLRAALGDAKDIATLRLQREAWVDAEKELQSLNKRKNEIAMRFGDKADLERDIADAELQVAELDIQESDDLQQLIDDAEKEYLQYQQDADAYQKELGAWDSNDIQVRYATVKARVEAERENLDRCDQKIKAQEEQRPLEVLHSELHNVTAELKRQQDHLAELRETDNLQVAKDLYAGAAARVESLENTIRDCEANLKALQTQIDYAAGAAEQLDVALAQRDVALRVLEAVHHRAQAAMLLYTTLIRHRDIARQKYAAPFTQRLTEFAAPVFGKGVGFELGSDLSVVKRTMKEQTVGVDELSGGAQEQLSIVQRFAVADLASQGGETVPVFIDDALGSTDSNRLEMMATLFSRQGHNQQVFVLTCMPQRYDYVAGKHELRISDLMQ	not soluble
MRKEDKGTVIRQLAKYIGQYPHFYLTDIEALNAEKTSELRRNCNKNGVKLVMVKNTLLRAALAASDVDFSSLYSCLKGNTAVMFCEVANSPAKVIKQFTKDTKGEGKPWLKAAYVQESFYIGRENLDALVSIKSKNELIADVVALLQSPAKNVIASLQSAGQTIHGVLKTLEEK	not soluble

— the DeepSol protein solubility set
